Data as given in publication PMC6536566.

Target: VC-OsSLAC1 (rice (Oryza sativa))
Test: split reporter (BiFC, NanoBiT); BiFC with Venus halves (VN, VC) co-expressed in rice protoplasts; confocal microscopy; ER-mCherry as internal control, Venus signal/mCherry signal

BiFC fluorescence (Venus signal/mCherry signal) relative to VN-Hd3A with VC-SLAC1: 3 fold
B1: VN-SAPK10 (natural protein)
chain: MDRAALTVGPGMDMPIMHDGDRYELVRDIGSGNFGVARLMRSRADGQLVAVKYIERGDKIDENVQREIINHRSLRHPNIIRFKEVILTPTHLAIVMEYASGGELFERICNAGRFSEDEARFFFQQLISGVSYCHSMQVCHRDLKLENTLLDGSTAPRLKICDFGYSKSSVLHSQPKSTVGTPAYIAPEVLLKKEYDGKIADVWSCGVTLYVMLVGAYPFEDPDEPKNFRKTIQRILGVQYSIPDYVHISPECRDLIARIFVANPATRISIPEIRNHPWFLKNLPADLMDDSKMSSQYEEPEQPMQSMDEIMQILAEATIPAAGSGGINQFLNDGLDLDDDMEDLDSDPDLDVESSGEIVYAM
